Here are results for 16 molecules from patent publication US20140271653A1 (Regeneron, published 2014).

B1: H1H3564P (antibody, V domains shown)
VH: QVQLVQSGAEVKKPGSSVKVSCKASGGTLSNNAFSWVRQAPGQGLEWLGGFNPIFDTANYAQKFQGRITITLDASTGTVYMELSSLRSEDTGVYYCAGTGAHFEFWGQGTLVTVSS
VL: DIQMTQSPSSLSASVGDRVTITCRTSQSISTYLNWYQQKPGKAPKFLIYAASTLQSGVPSRFSGSGSRTDFTLTISSLQPEDFATYYCQQSVSVPYTFGQGTKLEIK
B2: H1H3565P (antibody, V domains shown)
VH: QVQLVESGGGVVQPGRSLRLSCAASGFTFNSYGMHWVRQAPGKGLEWVTFIWSDGSNKYYLDSVKGRFTISRDNSKNTLYLQMNSLRAEDTAVYYCARSGLASYYYYGMDVWGQGTTVTVSS
VL: DIQMTQSPSSLSASVGDRVTITCRASQGIRNDLGWYQQKPGKAPKRLIYGASSLQSGVPSRFSGSGSGTEFTLTISSLQPEDFATYSCLQHNSYPWTFGQGTKVEIK
B3: H1H3566P (antibody, V domains shown)
VH: B2 VH with N30S, T49V, I51L, S53Y, Y59H, L61A, G108S
VL: B2 VL with G34A, Q55H
B4: H1H3567P (antibody, V domains shown)
VH: QVQLVQSGAEVKKPGASVKVSCKASGYTLTGYYLHWVRQAPGQGLEWMGWINPTSGGTNYAQKFQGRVTMTRDTSISAAFMELSRLRSDDTAVYHCAREFWPHGMDVWGQGTTVTVSS
VL: AIQMTQSPSSLSASVGDRVTITCRASQAIRNDLGWYQQKPGKAPKLLIYASSSLQSGVPSRFSGSGSGTDFTLTISSLQPEDFATYYCLADYKYTWTFGQGTKVEIK
B5: H1H3604P (antibody, V domains shown)
VH: QVQLVESGGGLVKPGGSLRLSCAASGFTFSDYYMTWIRQAPGRGLEWVSYISDTGSHLYYADSVRGRFTISRDNAKNSLYLQMNNLRAEDTAVYYCARDQDGEMELRFFDYWGQGTLVTVSS
VL: EIVLTQSPATLSLSPGERGTLSCRASQSINNYLAWYQQKPGQAPRLLIFDASNRATGIPARFSGSGSGTDFTLTISRIEPEDFAVYYCQQRTNWPLTFGGGTKVEIK
B6: H1H3591P (antibody, V domains shown)
VH: EVQLVESGGGLVQPGRSLRLSCAASGFTFDDYAMHWVRQTPGKGLEWISGISWSSGTIVYADSVKGRFTISRDNAKNSLYLQMNSLRGEDTALYHCAKDGYRWKSYSYGLDVWGQGTTVTVSS
VL: EIVMTQSPATLSLSPGERATLSCRPSQSVINNLAWYQQKPGQAPRLLIFGASSRATGIPARFSGSGSGTEFTLTISSLQSEDFALYYCQQYNNWPLTFGGGTKVEIK
B7: H1H3605P (antibody, V domains shown)
VH: QVQLQESGPGLVKPSETLSLTCTVSGGFISNYYWSWIRQPPGKGLEWIGYIYYSGSTKYNPSLKSRVTISVDTSKNQFSLKLSSVSAADTAVYYCARDGVVAAAGPPYHYHYGLDVWGQGTTVTVSS
VL: DIVMTQSPDSLAVSLGERATINCKSSQNLLYTSSNKNSLAWYQQKPGQPPELLIYWASTRESGVPDRFSGSGSGTDFILTISSLQAEDVAVYYCQQYYSSPWTFGQGTKVEIK
B8: H1H3592P (antibody, V domains shown)
VH: EVQLVESGGDLVQPGRSLRLSCVASGFTFDDYAMHWVRQAPGKGLEWVSGVSWSGSTVGYADSVKGRFTVSRDNAQKSLYLQMNSLRAEDTALYYCVKDAYKWNYYYYGLDVWGQGTTVTVSS
VL: EIVMTQSPATLSVSPGERATLSCRASQTILSNLAWYLQKPGQAPRLLIYGASTRATGLPARFSGSGSGTEFTLTISSLQSEDFAVYYCQQYNNWPLTFGGGTKVEIK
B9: H1H3592P2 (antibody, V domains shown)
VH: B8 VH with W103Y
VL: B8 VL
B10: H1H3603P (antibody, V domains shown)
VH: QVQLQESGPGLVKPSETLSLTCTVSGGSISGYYWTWIRQPPGKGLEWIGYIYYSGATNYNPSLKSRVTISLDTSKNQFSLKLSSVTAADTAVYYCARDGNYDILTGYYNYHYYGMDVWGQGTTVTVSS
VL: DIQMTQSPSSLSASVGDRVTITCRASQDIGNYLAWFQQKPGKAPESLIYAASILQSGVPSKFSGSGSGTDFTLTISSLQPEDFATYYCQQYNTFPWTFGQGTKVEIK
B11: H1H3589P (antibody, V domains shown)
VH: EVQLVESGGGLVQPGGSLRLSCEASGFTFSTYWMSWVRQAPGKGLEWVANIKQDGSVKYFVDSVKGRFTVSRDNAKNSLYLQMNSLRAEDTALYHCARERHRGSYYGYYDGMDVWGQGTTVTVSS
VL: DIQMTQSPSSLSASVGDRVTITCRASQNIDIYLNWYQERPGKAPNLLIYAASSLQSGVPSRFSGSGSGTDFTLTISSLQPEDFATYYCQQSYNTPFTFGGGTKVEIK
B12: H1H3583P (antibody, V domains shown)
VH: QVQLVQSGAEVKKSGSSVKVSCKASGGTFSSYAISWVRQAPGQGLEWMGGIIPIFGTGNYAQKFQGRVTITTDESTSTAYMELSSLRSEDTAVYYCARDSSSSPRYYGMDVWGHGTTVTVSS
VL: EIVLTQSPATLSLSPGERATLSCRASQSVTSYLAWYQQKPGQAPRLLIYDVSKRATGIPARFSGSGSGTDFTLTISSLEPEDFATYYCQQRSNWPPTFGQGTRLEIK
B13: H1H3597P (antibody, V domains shown)
VH: EVQLVESGGGLVQPGGSLRLSCGASGFTFRDFDMNWVRQAPGRGLEWVSGIGGSGGNTYYADSVKGRFTISRDNSKNTLFLQMSSLRAEDTAVYYCVKDPYGDYRNYYGMDVWGQGTTVTVSS
VL: DIVMTQSPLSLPVTPGEPASISCRSSQSLLHSNGYNYLDWYLQKPGQSPQLLIYLGSNRASGVPDRFRGSGSDKDFTLKISRVGAEDVGVYYCMQALQTITFGQGTRLEIK
B14: H1H3598P (antibody, V domains shown)
VH: EVQLVESGGGLGQPGGSLRLSCGASGFMFRNYAMSWVRQAPGKGLEWVSTILDSGDNTYYADSVKGRFTISRDNSKNTLYLQMNSLRAEDTAVYYCAKDPYGDYRDYYGMDVWGQGTTVTVSS
VL: B13 VL with D73G, G84E, V90L
B15: H1H3581P (antibody, V domains shown)
VH: EVQLVESGGGLVHPGGSLRLSCEASGFTLSSHVMSWVRQVPGKGLEWVSRISGPGGSTKYADSVQGRFTTSRDNSKNTLYLQMNSLIAEDSAAYYCAKGGGYSGYDWDFYYGMDVWGQGTTVTVSS
VL: DIQMTQSPSSVSASVGDRVTITCRASQGISSWLAWYQQKPGKAPKLLIYAASSLQSGVPSRFSGSGSGTDFTLTISSLQPEDFATYYCQQTNSFPLTFGGGTKVDIK
B16: H1H3607P (antibody, V domains shown)
VH: QVQLVESGGGLVKPGGSLRLSCAASGFTFSDYYMTWIRQVPGKGLEWVSYISSTGNNRYYGDSVKGRFAISRDNAKNLLFLQMNSLKAEDTAVYYCARENNWNPYFFYYGMDVWGQGTTVTVSS
VL: B15 VL with S31I, Y49S, S53T, T91A, G100Q, D105E

Numbering of substitutions follows the chain as printed.

In the first test the target is T1, RSV-F.mmh (Respiratory Syncytial Virus).
T1 construct: also called recombinant RSV-F; soluble monomeric RSV-F
The test can be described thus: SPR (Biacore), mAb captured via Fc, soluble RSV-F.mmh injected, 25 C.
Turning to B1, binding was characterised by a dissociation constant (Kd) of 25 nM, the koff was 7.78e-05 s⁻¹, the on-rate (kon) was 3100 M⁻¹ s⁻¹ and the “t½” value stood at 2.47 h.

Consider B2, for which binding was characterised by a dissociation constant (Kd) of 3.01 nM, the koff is 5.8e-05 s⁻¹, the kon is 19300 M⁻¹ s⁻¹ and the “t½” value is 3.32 h.

Consider B3, for which binding was put at a Kd of 2.06 nM, the koff came to 4.2e-05 s⁻¹, the on-rate constant (kon) is 20400 M⁻¹ s⁻¹ and the “t½” value came to 4.58 h.

As for B4, binding was characterised by a dissociation constant (Kd) of 43.4 nM, the koff was 0.00263 s⁻¹, the kon amounted to 60500 M⁻¹ s⁻¹ and the “t½” value came to 0.0667 h.

Regarding B5, the Kd is 30 nM, the dissociation rate constant (koff) was 9.27e-05 s⁻¹, the kon was found to be 3100 M⁻¹ s⁻¹ and the “t½” value was 2.08 h.

For B6, the Kd came to 34.2 nM, the koff is 0.00153 s⁻¹, the kon stood at 44600 M⁻¹ s⁻¹ and the “t½” value was found to be 0.133 h.

Regarding B7, the dissociation constant (Kd) was 59 nM, the dissociation rate constant (koff) stood at 0.000168 s⁻¹, the kon is 2800 M⁻¹ s⁻¹ and the “t½” value stood at 1.15 h.

In the case of B8, the Kd was determined as 4.39 nM, the koff is 0.000466 s⁻¹, the on-rate constant (kon) came to 106000 M⁻¹ s⁻¹ and the “t½” value amounted to 0.417 h.

Consider B9, for which the Kd is 14.7 nM, the koff was determined as 0.00146 s⁻¹, the on-rate constant (kon) amounted to 99300 M⁻¹ s⁻¹ and the “t½” value is 0.133 h.

With B10, the Kd was found to be 41 nM, the koff turned out to be 0.000123 s⁻¹, the on-rate constant (kon) turned out to be 3000 M⁻¹ s⁻¹ and the “t½” value is 1.57 h.

With B11, binding was characterised by a dissociation constant (Kd) of 243 nM, the koff worked out at 0.00914 s⁻¹, the kon came out at 37700 M⁻¹ s⁻¹ and the “t½” value is 0.0167 h.

Regarding B12, the dissociation constant Kd worked out at 34.4 nM, the dissociation rate constant (koff) was 0.00308 s⁻¹, the kon worked out at 89400 M⁻¹ s⁻¹ and the “t½” value stood at 0.0667 h.

With B13, the binding result is listed as “no binding”.

B14: the binding result is given as “no binding”.

On to B15, for which the binding result is reported as “no binding”.

As to B16, the Kd is 35 nM, the koff is 0.000148 s⁻¹, the kon was 4200 M⁻¹ s⁻¹ and the “t½” value came out at 1.3 h.

For a further test, the target named is RSV-F of RSV subtype A strain A2 (1540) (respiratory syncytial virus subtype A, …, UniProt P03420 26-574). The test can be described thus: cell-based or functional assay.
For the molecule B1, the “IC50 [pM] for RSV A2 Neutralization, Trial 1” value (from here on “IC50 [pM] … Trial 1”) is above 10000 pM.

On to B2, for which the “IC50 [pM] … Trial 1” value is above 10000 pM.

For the molecule B3, the “IC50 [pM] … Trial 1” value was above 10000 pM.

For B4, the “IC50 [pM] for RSV A2 Neutralization, Trial 4” value (“IC50 [pM] … Trial 4” below) was determined as 257 pM and the “IC50 [pM] for RSV A2 Neutralization, Trial 6” value (“IC50 [pM] … Trial 6” for short) amounted to 390 pM.

For the molecule B5, the “IC50 [pM] … Trial 1” value is above 10000 pM.

As for B6, the “IC50 [pM] … Trial 4” value amounted to 6 pM; the “IC50 [pM] … Trial 6” value came out at 8 pM; the “IC50 [pM] for RSV A2 Neutralization, Trial 7” value was 6 pM.

For B7, the “IC50 [pM] … Trial 1” value was above 10000 pM.

With B8, the “IC50 [pM] … Trial 4” value was found to be 6 pM; the “IC50 [pM] … Trial 6” value was found to be 5 pM; the “IC50 [pM] for RSV A2 Neutralization, Trial 7” value was found to be 4 pM.

In the case of B10, the “IC50 [pM] … Trial 1” value was above 10000 pM.

As for B11, the “IC50 [pM] for RSV A2 Neutralization, Trial 5” value turned out to be 300 pM.

As for B12, the “IC50 [pM] for RSV A2 Neutralization, Trial 5” value amounted to 50 pM.

On to B13, for which the “IC50 [pM] … Trial 1” value was above 10000 pM.

Regarding B14, the “IC50 [pM] … Trial 1” value was above 10000 pM.

For B15, the “IC50 [pM] … Trial 1” value is above 10000 pM.

On to B16, for which the “IC50 [pM] … Trial 1” value was above 10000 pM.

A word on the Kd: it is the free concentration of one partner at which half of the binding sites on the other are occupied at equilibrium, for simple one-to-one binding. A high value points to a looser complex. The term koff denotes the first-order rate constant of dissociation. A lower koff goes with slow dissociation. As a reminder, the kon is the rate constant with which the complex forms. Read a low kon as slow association. Usually t½ stands for the time needed for the level to fall by half in the phase considered. Lower therefore signals rapid decline.
